Test results from the supplement of paper PMC12042874.
± gives the uncertainty stated by the source.

assay: amyloid nucleation score (Sup35N fusion, yeast selection) (log enrichment); library NNK3; higher = more nucleation; inactive = no reads after selection
Method in brief: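 After 24 hours of induction with 100 μM copper sulfate, psi-negative yeast expressing peptides of 20 random codons fused to Sup35N were grown for 7 days at 30°C on medium lacking adenine and uracil. Input and output plasmid inserts were sequenced with Illumina, and sequences with under 100 input reads were discarded. Scores for nucleation are the DiMSum log enrichment of output over input reads, centred on the mode score of non-aggregating sequences.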

Row | Substance | amyloid nucleation score
1 | SYNYRGADRWLT | inactive
2 | VRALNTAAWLSNTRCLGMDA | inactive
3 | YMCKCSYVEMTHSA | inactive
4 | RVYMPAAKSINYEPNITRM | inactive
5 | WAPACYTDSCVMIGGEPYRT | inactive
6 | FGSLRCFGWLAWSICVNMYY | inactive
7 | LRLGIEMNTIGTLNMGPLSL | inactive
8 | RSWSETC | inactive
9 | MSRTKPLGF | inactive
10 | VGLRNLGFVMFSRWLTPLLI | inactive
11 | PRIFLSR | inactive
12 | LCVPTSDRELGYRWFRAEWH | inactive
13 | TRYKELSFNTVSLVRYCAGG | inactive
14 | TMGGNVIV | inactive
15 | VLCGLARVKEVIASRRWECG | inactive
16 | VSLTGWSR | inactive
17 | TVHTNLCAMLMFTGYF | inactive
18 | QVFLRMKRRICVPLFYLACN | 0.422 ± 0.21
19 | SGLKTFLEMSLHLCVLLARA | inactive
20 | YGILLFGVSWWWAVSFFENF | inactive
21 | GTGEGNDLCARQNPLHQRII | inactive
22 | LVSKAGLSLRLKG | inactive
23 | TYFVVDGYVGMFCLIGDISS | 2.69 ± 0.052
24 | TAMYVMSFCW | inactive

Row | Substance | amyloid nucleation score
25 | NRTMLFEEKYVG | inactive
26 | EIFVFTM | inactive
27 | RFHVLINCFSAAGRGNPGSR | 1.69 ± 0.068
28 | SSCKDPRRKE | inactive
29 | IDIVNL | inactive
30 | LWHVF | inactive
31 | VRNILRLNRFCWCKTLQKIA | inactive
32 | INSLFLRERICRVRCPGFAS | inactive
33 | LDNDSWTRGLRGYLTYLRER | inactive
34 | GLLNSD | inactive
35 | SYRCMSESRFYYFLSCHARR | inactive
36 | ENTTMVGHMGYSLMFSYK | 1.25 ± 0.12
37 | TDTRNINV | inactive
38 | EGTRLTSYM | inactive
39 | HAWTQPNHI | inactive
40 | VEYLFVNCWSTE | inactive
41 | RVSSGSIVTRQHDLN | inactive
42 | SFFPIPIWCD | inactive
43 | ISVVFSGKNSLKEMRMKMAG | 0.469 ± 0.21
44 | CIVKTLQ | inactive
45 | IYYHIETSSAVASWYWRCAT | inactive
46 | KQVTVNTLMSPPVRYL | inactive
47 | CLCVTAGYISNTGGHRSWII | inactive
48 | LDKEFAYIYSYC | inactive

Row | Substance | amyloid nucleation score
49 | RYTGLMTKLASYYNKISICN | inactive
50 | ISVLERLGYMFVSRHMLLVW | inactive
51 | WNHLDERANELCCN | inactive
52 | QPCDHWHEDLNVCVVVIYAG | inactive
53 | CVLKMLNNHHAHFILNGCRT | inactive
54 | YIQSNCEFMHPVCIIIFACV | 1.16 ± 0.11
55 | SCHFYTML | 0.237 ± 0.65
56 | ILTEYLPSTS | inactive
57 | LGVPSIPGT | inactive
58 | TVTSSFATLNQVYGPHVFVN | inactive
59 | HSPKPKGWFDGTNSRDGKLY | inactive
60 | PRGIDG | inactive
61 | GSALSSLFQCLLFPLSVSVL | 0.49 ± 0.21
62 | ETGMLCSGYCKGVCARDDPG | inactive
63 | LSELSRSARVLMFQLFMSRC | 1.87 ± 0.081
64 | EHVWHRCTKVN | inactive
65 | WQVTCDFTFNLRFLFGFGDC | 0.617 ± 0.2
66 | PVLPQGLRVLYDSVSVTSHL | inactive
67 | TFIFVLVSC | inactive
68 | MGPSVMFCIDLSSWKHLIRL | 0.87 ± 0.16
69 | PLWSRCLYRLSAGGACSVWK | inactive
70 | GPRMCMQLRS | inactive
71 | VVDNRNLSTCFYFRCVDWCQ | inactive
72 | MIFLLTSIL | inactive

Row | Substance | amyloid nucleation score
73 | INLGLPVWSSIIFFNQSHNL | 0.679 ± 0.14
74 | SVLYRWGYRTGWEL | 0.128 ± 0.52
75 | SSVKRYLAVRWCSESMHTRW | inactive
76 | VAKFYRQ | inactive
77 | YSLNCYYFSLGLN | inactive
78 | AALSSTW | inactive
79 | IQHFFQINNWLLDI | 1.98 ± 0.07
80 | GVKLVPAAIVGYASLQGL | -0.375 ± 0.83
81 | SYFDIFGTTDQVSVKSRMCT | inactive
82 | IKSERIWDM | inactive
83 | WDAPMSNVDRL | inactive
84 | VYLWKYRPQYPRVA | inactive
85 | YRAFTFIGCLNGLTNQHFFY | 2.4 ± 0.059
86 | AFRSTSQYVY | inactive
87 | TIGSAWFGKLGDGLALFGLF | inactive
88 | WEGYT | inactive
89 | KKQGSWRKNITISRVCVVLG | inactive
90 | FNVRRHHYYGMCPLLISRVR | inactive
91 | GVNWFSIQFNIWVLSRDADL | 3.36 ± 0.06
92 | LFFMIVFSLYEFVMCFSSTR | inactive
93 | FKSCLRTC | inactive
94 | FVHHYIWRVNL | 0.712 ± 0.36
95 | IYYSRHEYSDCV | inactive
96 | MGLLSTFFVEFFKT | inactive

Row | Substance | amyloid nucleation score
97 | PDDCVGRSD | inactive
98 | SEMLFIDQLCSSSVSKYTVI | inactive
99 | MPIGTSSYFFSQKICHYTSR | 1.77 ± 0.09
100 | RSVVVIYKRCGLYLKS | inactive
101 | WSKHVCLFENSKSPHFSEDS | inactive
102 | MFVRYIAISYWYQLTWEFSV | inactive
103 | FTNKNCFIGAVTRCEVRVWG | inactive
104 | SSDDFSWTIRMRRSEFTSHG | inactive
105 | STWTG | inactive
106 | IRYVFPFDIAHYFYLTKRYG | inactive
107 | CIHSRTNNIRMTNCVRLGLG | inactive
108 | SLYRDLHFYSVLGF | inactive
109 | YINSFCTRKSYIY | inactive
110 | RSALILAWHCRSMSLQDAEG | inactive
111 | MRAFIRYCIFVCMSAYRNMV | -0.352 ± 0.73
112 | HYLAIYGVGCCNFYSYTAVC | 1.28 ± 0.085
113 | QLCPHYFCKNKNATYGLTSR | inactive
114 | KYFPVAQYGRIWVRRPRGQV | inactive
115 | QDIELMFSFFDGKAFSSYHL | -0.787 ± 0.98
116 | NWYDSWRVFAQNKDCSLWA | inactive
117 | SNALYCPWHWLIHQVV | inactive
118 | NAENFYV | inactive
119 | HWYVIKLSSNGCTFAVSLRV | inactive
120 | TLVVMEIIQLLSFSHGPFI | inactive
